The values below come from paper PMC10040874 (2023).

One may read the Kd as the equilibrium constant for the complex coming apart. Lower therefore signals higher affinity.

Test [1] addresses D. rerio CNNM CBS-pair domain (D. rerio). The test can be described thus: ITC. (In general: ITC needs no label: the signal is the heat of the interaction.)
Test [2] shares this target. The test can be described thus: ITC. This is another data set of the same source.
In test [3] the target is T1, CBS-pair domain of a C. elegans CNNM protein (the one of two expressed that bound with 13 μM affinity) (C. elegans).
T1 chain: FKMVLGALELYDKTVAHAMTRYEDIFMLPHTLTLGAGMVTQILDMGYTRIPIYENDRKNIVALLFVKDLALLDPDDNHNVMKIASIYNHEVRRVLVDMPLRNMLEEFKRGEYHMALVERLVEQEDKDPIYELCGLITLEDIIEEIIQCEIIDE
Put plainly: ITC; CNNM3.

The target of test [4] is T2, CBS-pair domain of a C. elegans CNNM protein (the one of two expressed that bound with 1 μM affinity) (C. elegans).
T2 chain: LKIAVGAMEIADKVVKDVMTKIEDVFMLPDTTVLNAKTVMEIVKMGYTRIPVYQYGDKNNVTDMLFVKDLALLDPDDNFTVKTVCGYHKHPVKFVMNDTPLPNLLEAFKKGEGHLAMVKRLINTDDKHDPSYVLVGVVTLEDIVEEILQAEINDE
Put plainly: ITC; CNNM1.

Test [5] concerns the target T2, CBS-pair domain of a C. elegans CNNM …. Put plainly: ITC; CNNM1.
The target in test [6] is T3, Toxoplasma gondii CNNM CBS-pair domain (T. gondii).
T3 chain: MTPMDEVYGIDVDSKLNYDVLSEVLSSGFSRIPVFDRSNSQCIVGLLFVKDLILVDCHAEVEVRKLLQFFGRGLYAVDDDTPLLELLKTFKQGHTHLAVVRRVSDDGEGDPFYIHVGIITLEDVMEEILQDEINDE
The test can be described thus: ITC.

Test [7] concerns the target T3, Toxoplasma gondii CNNM CBS-pair domain. Put plainly: ITC.
In test [8] the target is Drosophila melanogaster CNNM CBS-pair domain, GST-tagged (D. melanogaster, UniProt A0A0B7P9G0 362-515). The test can be described thus: ITC.
Sequence of Drosophila melanogaster CNNM CBS-pair domain, GST-tagged (A0A0B7P9G0 362-515): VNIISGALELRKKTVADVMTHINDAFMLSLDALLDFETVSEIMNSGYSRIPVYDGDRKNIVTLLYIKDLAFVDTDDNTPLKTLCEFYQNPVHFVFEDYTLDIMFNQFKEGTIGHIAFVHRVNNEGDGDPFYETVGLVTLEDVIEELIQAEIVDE
Test [9] concerns the target T4, human CNNM3 CBS-pair domain (human, UniProt Q8NE01 309-452). Put plainly: ITC.
The target in test [10] is T4, human CNNM3 CBS-pair domain. The test can be described thus: ITC. This is another data set of the same source.
Test [11] concerns the target M. brevicollis CNNM CBS-pair domain (M. brevicollis). Put plainly: ITC.
For test [12] the target is unchanged. The test can be described thus: ITC. The source holds these as a separate data set.

T4 sequence (Q8NE01 309-452): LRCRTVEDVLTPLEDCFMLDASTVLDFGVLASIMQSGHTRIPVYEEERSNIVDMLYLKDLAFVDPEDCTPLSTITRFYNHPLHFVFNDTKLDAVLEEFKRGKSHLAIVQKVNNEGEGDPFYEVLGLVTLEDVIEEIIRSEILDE
Sequence of D. rerio CNNM CBS-pair domain (D. rerio) (chain, as listed by the source): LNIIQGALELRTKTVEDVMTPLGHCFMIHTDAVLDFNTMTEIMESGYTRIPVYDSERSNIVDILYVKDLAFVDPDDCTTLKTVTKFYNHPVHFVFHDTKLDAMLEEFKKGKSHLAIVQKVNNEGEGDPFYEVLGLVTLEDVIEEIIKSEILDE

B1: D. rerio PRL (enzyme)
chain: MARMNRPAPVEVCYKNMRFLITHNPTNSTLSSFIEDLKKYGVTTVVRVCEITYDKTPLEKNGITVVDWPFDDGAPPPSKVVEDWLSLLKRRFIEEPGCCVAVHCVAGLGRAPVLVAVALIESGMKYEDAIQFIRQKRRGAINSKQLTYLEKYRPKQRLRYKHPHIFKNK
modifications: Table S2 says CNNM4 only; the choice of cnnm4a over cnnm4b is assumed
As to B1, in test [1], the Ka stood at 5.84e+07 M⁻¹. For the same molecule, the Kd in test [2] is 17 nM.

B2: Caenorhabditis elegans PRL (enzyme)
chain: MSAAVQKRASTNTVAATTYFKPAPSEIAWGKMRFLITDRPNNSSIQSYIEELEKHGARAVVRVCEPTYDTLALKEAGIDVLDWQFSDGSPPPPEVIKSWFQLCMTSFKEHPDKSIAVHCVAGLGRAPVLVAIALIEAGMKYEDAVEMIRTQRRGALNQKQLKFLETYKANGELRRLRGNVDGKQKSCCIQ
modifications: Assigning the 13 uM binder to CNNM3 is inferred from listing order (Figure 4 not in text)
The molecule B2 showed a Kd in [3] of 970 nM.

B3: Caenorhabditis elegans PRL (enzyme)
chain: MSAAVQKRASTNTVAATTYFKPAPSEIAWGKMRFLITDRPNNSSIQSYIEELEKHGARAVVRVCEPTYDTLALKEAGIDVLDWQFSDGSPPPPEVIKSWFQLCMTSFKEHPDKSIAVHCVAGLGRAPVLVAIALIEAGMKYEDAVEMIRTQRRGALNQKQLKFLETYKANGELRRLRGNVDGKQKSCCIQ
modifications: Table S2: only CNNM1 (376-530) and CNNM3 (375-527) gave protein; assigning the 1 uM binder to CNNM1 is inferred from listing order (Figure 4 not in text)
In turn, B3 showed a Ka in test [4] of 76100 M⁻¹. Further, binding in [5] was put at a Kd of 13000 nM.

B4: Toxoplasma gondii PRL (enzyme)
chain: MNEASSCLSPEEPRSCDNREEGTTRELRSGSHMGKGKLGHSPTTSHSELTREGSSVDCGRRGGNEEKTEEKRSEKAGAERECERKTQRPRFDGDGSSLSPRSNASRGSACSTRSCESHEKVGRTLSGDSTGRDGVCSVSSARQPSLRRKSAAEEVGREVKVDGKALDSQIELVRTKNRGKSEVTRLGRGAGSACAVSVSPLGTARHVPSGRQPSERRQSAKPLTKLSSSSSSHNKTTMVPTVMNTPTRIEAGRQKFLIFDAPSQENLPAYIEEMRAYEVTDLVRTCERTYDDKTVLASGIRPHELIFPDGEAPPDDVIDEWLTLCNAVSQQRGAIAIHCVAGLGRAPVLVAIALIEKGMDPMDAIMFIRERRKGAINRRQLQFLKGYKRRSNYKKCCGGR
As for B4, the Ka in test [6] stood at 134000 M⁻¹. The same molecule had a Kd in test [7] of 7400 nM.

B5: Drosophila melanogaster PRL (wild-type) (enzyme)
chain: MSITMRQKDLRPAPALIEYKGMKFLITDRPSDITINHYIMELKKNNVNTVVRVCEPSYNTDELETQGITVKDLAFEDGTFPPQQVVDEWFEVLKDKYQQNPEACVAVHCVAGLGRAPVLVALALIELGLKYEAAVEMIRDKRRGAINAKQLSFLEKYKPKARLKHKNGHKNSCSVQ
On to B5, for which, in test [8], the Ka was 2.84e+06 M⁻¹.

B6: human PRL2 (enzyme)
chain: MNRPAPVEISYENMRFLITHNPTNATLNKFTEELKKYGVTTLVRVCDATYDKAPVEKEGIHVLDWPFDDGAPPPNQIVDDWLNLLKTKFREEPGCCVAVHCVAGLGRAPVLVALALIECGMKYEDAVQFIRQKRRGAFNSKQLLYLEKYRPKMRLRFRDTNGH
In test [9], B6 displayed a Ka of 3.63e+07 M⁻¹. Moreover, the Kd in test [10] came to 28 nM.

B7: M. brevicollis PRL (enzyme)
chain: MARNHISKISHKNMRFLITDRPSDATVEDYVRVLQQENVVALCRVCEPSYDVSKLKDNGIEVHDWAFQDGAPPPDEVIDNWLRLCRETFAQHPNGFVAVHCVAGLGRAPVLVALSLIEAGMSSEDAVLFIREKRHGAINRRQLQFLQDYKRRGKAKG
For B7, the Ka in [11] worked out at 3.24e+06 M⁻¹. In addition, binding in test [12] was put at a Kd of 300 nM.
